Measured values as given in patent publication US20220356230A1 (published 2022).

T1: MERS-CoV (SARS-CoV-2) Spike Protein (ECD, aa 1-1297, His Tag) (Sino 40069-[change]) (MERS-CoV, UniProt K9N5Q8 18-1297)
T1 sequence: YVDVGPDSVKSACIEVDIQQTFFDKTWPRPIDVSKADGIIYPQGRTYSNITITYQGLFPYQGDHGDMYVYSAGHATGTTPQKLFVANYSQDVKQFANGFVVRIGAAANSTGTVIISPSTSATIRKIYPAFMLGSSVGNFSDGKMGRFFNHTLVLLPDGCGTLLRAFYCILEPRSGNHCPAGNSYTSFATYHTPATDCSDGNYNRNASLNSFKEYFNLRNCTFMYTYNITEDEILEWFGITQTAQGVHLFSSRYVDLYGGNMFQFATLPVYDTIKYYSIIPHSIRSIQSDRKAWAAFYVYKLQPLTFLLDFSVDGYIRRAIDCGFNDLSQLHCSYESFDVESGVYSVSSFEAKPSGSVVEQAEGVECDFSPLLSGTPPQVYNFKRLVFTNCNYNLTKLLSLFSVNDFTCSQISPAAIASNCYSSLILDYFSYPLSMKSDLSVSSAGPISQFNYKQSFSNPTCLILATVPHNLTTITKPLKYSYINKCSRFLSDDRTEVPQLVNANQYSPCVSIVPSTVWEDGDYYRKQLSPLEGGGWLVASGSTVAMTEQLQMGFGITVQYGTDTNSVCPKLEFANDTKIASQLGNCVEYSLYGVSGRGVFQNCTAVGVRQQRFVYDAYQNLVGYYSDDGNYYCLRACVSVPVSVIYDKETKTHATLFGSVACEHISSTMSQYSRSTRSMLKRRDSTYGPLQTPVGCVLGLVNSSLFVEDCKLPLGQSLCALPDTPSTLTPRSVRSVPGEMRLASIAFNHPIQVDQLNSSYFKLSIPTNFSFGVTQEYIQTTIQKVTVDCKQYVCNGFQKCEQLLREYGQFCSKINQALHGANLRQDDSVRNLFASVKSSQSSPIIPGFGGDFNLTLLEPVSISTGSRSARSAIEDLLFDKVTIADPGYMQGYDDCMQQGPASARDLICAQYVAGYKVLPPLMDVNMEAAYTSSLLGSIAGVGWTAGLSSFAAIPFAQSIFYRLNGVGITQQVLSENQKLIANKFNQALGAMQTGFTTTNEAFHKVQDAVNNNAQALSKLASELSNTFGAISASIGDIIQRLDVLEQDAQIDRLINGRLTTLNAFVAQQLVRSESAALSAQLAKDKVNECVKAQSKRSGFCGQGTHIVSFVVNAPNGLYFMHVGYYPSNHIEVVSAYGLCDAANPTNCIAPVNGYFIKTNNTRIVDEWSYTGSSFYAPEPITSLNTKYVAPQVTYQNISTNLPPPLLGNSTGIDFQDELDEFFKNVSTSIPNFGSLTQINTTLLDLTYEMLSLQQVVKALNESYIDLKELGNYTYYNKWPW

T2: MERS-CoV (SARS-CoV-2) Spike Protein S2 (aa 726-1296, His Tag) (Sino 40070-[change]) (MERS-CoV, UniProt K9N5Q8 726-1296)
T2 sequence: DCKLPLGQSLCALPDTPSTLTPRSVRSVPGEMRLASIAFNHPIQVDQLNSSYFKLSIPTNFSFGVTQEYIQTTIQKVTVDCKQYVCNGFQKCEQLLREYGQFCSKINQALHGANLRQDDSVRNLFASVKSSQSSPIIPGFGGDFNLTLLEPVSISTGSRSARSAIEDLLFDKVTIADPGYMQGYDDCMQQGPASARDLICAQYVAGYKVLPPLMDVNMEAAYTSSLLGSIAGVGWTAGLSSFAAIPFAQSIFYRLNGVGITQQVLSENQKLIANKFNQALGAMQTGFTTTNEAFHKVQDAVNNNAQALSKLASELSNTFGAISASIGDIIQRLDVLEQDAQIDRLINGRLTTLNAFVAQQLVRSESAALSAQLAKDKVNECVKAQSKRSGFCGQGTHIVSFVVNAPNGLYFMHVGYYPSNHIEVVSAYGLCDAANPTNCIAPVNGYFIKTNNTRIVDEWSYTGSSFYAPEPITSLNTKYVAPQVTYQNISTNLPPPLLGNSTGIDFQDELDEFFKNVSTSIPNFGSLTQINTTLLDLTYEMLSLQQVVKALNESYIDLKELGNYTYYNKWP


Columns and labels:
[1] = target: T1, MERS-CoV (SARS-CoV-2) Spike Protein …; assay: Luminex bead assay, supernatant on antigen microspheres
[2] = target: T2, MERS-CoV (SARS-CoV-2) Spike Protein S2 …; assay: as above
[3] = target: SARS-CoV-2 spike protein (S-wt, Wuhan-Hu-1, NCBI Accession Number MN908947.3) on VSV-SARS-CoV-2-S … (SARS-CoV-2, UniProt P0DTC2 14-1273); assay: cell-based or functional assay

Binder	Binding signal (MFI) [1] [MFI]	Binding signal (MFI) [2] [MFI]	mAb neutralization potency (IC50 (M)) [3] [M]
mAb10913 (antibody, V domains shown) VH: EVQLVESGGGLVQPGGSLRLSCAASGFTFRNYEMNWVRQAPGKGLEWVSYITSSGSTMYYADSVKGRFTISRDNAKNSLYLQMNSLRAEDTAVYYCARDGFYYYYAMDVWGQGTTVTVSS VL: QSVLTQPPSVSAAPGQKVTISCSGSSSNIGNNYVSWYQQLPGTAPKLLIYDNNKRPSGIPDRFSGSKSGTSATLGITGLQTGDEADYYCGTWDSSLSVGRVFGTGTKVTVLG	20	26	–
mAb10986 (antibody, V domains shown) VH: EVQLVESGGGLVQPGGSLRLSCAASEFTVSSNYMSWVRQAPGKGLEWVSVIYSGGSTFYADSVKGRFTISRDNSKNTLYLQMNSLRAEDTAVYYCARALPYGDLHFDYWGQGTLVTVSS VL: QSVLTQPPSVSGAPGQRVTISCTGSSSNIGTGYDVHWYQQLPGTAPKLLIYGNTNRPSGVPDRFSGSKSGTSASLAITGLQAEDEADYYCQSYDSSLSDSYVFGTGTKVTVLG	–	–	9.91e-11
mAb10914 (antibody, V domains shown) VH: EVQLVESGGGLVQPGGSLRLSCAASGLIVSRNYMIWVRQAPGKGLEWVSVIYSGGSTFYADSVKGRFTISRHNSKNTLYLQMNSLRAEDTAVYYCARDLGTGGMDVWGQGTTVTVSS VL: DIQLTQSPSFLSASVGDRVTITCWASQGISSYLAWYQQKPGKAPKLLIYAASTLQSGVPSRFSGSGSGTEFTLTISSLQPEDFATYYCQQLNSYPLTFGGGTKVEIKR	19	28	–
